Results from patent US20050079574A1 (Genentech, published 2005).

B1: llama anti-HCG monobody variable heavy chain (VHH), wild type (VHH)
VHH: DVQLQESGGGLVQAGGSLRLSCAASGRTGSTYDMGWFRQAPGKERESVAAINWDSARTYYASSVRGRFTISRDNAKKTVYLQMNSLKPEDTAVYTCGAGEGGTWDSWGQGTQVTVSSAGGMDYKDDDDK
notes: also called wild type anti-HCG scaffold; llama a-HCG
B2: RLV scaffold (VHH) (VHH)
VHH: DVQLQESGGGLVQAGGSLRLSCAASGRTGSTYDMGWFRQAPGKERESVAAINWDSARTYYASSVRGRFTISRDNAKKTVYLQMNSLKPEDTAVYTCGAGRLVNGLSGLVSWEMPLAWGQGTQVTVSSAGGMDYKDDDDK
B3: VLK scaffold (VHH) (VHH)
VHH: DVQLQESGGGLVQAGGSLRLSCAASGRTGSTYDMGWFRQAPGKERESVAAINWDSARTYYASSVRGRFTISRDNAKKTVYLQMNSLKPEDTAVYTCGAGVLKRRGSSVAIFTRVQSWGQGTQVTVSSAGGMDYKDDDDK
B4: LLR scaffold (VHH) (VHH)
VHH: DVQLQESGGGLVQAGGSLRLSCAASGRTGSTYDMGWFRQAPGKERESVAAINWDSARTYYASSVRGRFTISRDNAKKTVYLQMNSLKPEDTAVYTCGAGLLRRGVNATPNWFGLVGWGQGTQVTVSSAGGMDYKDDDDK
B5: RIG scaffold (VHH) (VHH)
VHH: DVQLQESGGGLVQAGGSLRLSCAASGRTGSTYDMGWFRQAPGKERESVAAINWDSARTYYASSVRGRFTISRDNAKKTVYLQMNSLKPEDTAVYTCGAGRIGRSVFNLRRESWVTWWGQGTQVTVSSAGGMDYKDDDDK
notes: also called RIG-Parent Scaffold; RIG VHH domain
B6: RIG scaffold with mutation T57E (VHH, name in Kabat numbering)
VHH: DVQLQESGGGLVQAGGSLRLSCAASGRTGSTYDMGWFRQAPGKERESVAAINWDSAREYYASSVRGRFTISRDNAKKTVYLQMNSLKPEDTAVYTCGAGRIGRSVFNLRRESWVTWWGQGTQVTVSSAGGMDYKDDDDK
B7: RIG scaffold alanine point mutant V100jA (VHH, name in Kabat numbering)
VHH: DVQLQESGGGLVQAGGSLRLSCAASGRTGSTYDMGWFRQAPGKERESVAAINWDSARTYYASSVRGRFTISRDNAKKTVYLQMNSLKPEDTAVYTCGAGRIGRSVFNLRRESWATWWGQGTQVTVSSAGGMDYKDDDDK
B8: RIG scaffold alanine point mutant S100A (VHH, name in Kabat numbering)
VHH: DVQLQESGGGLVQAGGSLRLSCAASGRTGSTYDMGWFRQAPGKERESVAAINWDSARTYYASSVRGRFTISRDNAKKTVYLQMNSLKPEDTAVYTCGAGRIGRAVFNLRRESWVTWWGQGTQVTVSSAGGMDYKDDDDK

What follows are binders tested against T1, Protein A (UniProt P38507 37-477) (assay: BiaCore 3000, Protein A on CM5 chip, steady state fit).
T1 construct: also called Protein A (Sigma)
Experimental: The affinity for Protein A for each of the individual clones was determined using a BiaCore 3000. Protein A was coated onto CM5 chip, as was BSA and VEGF. The latter two proteins were used as negative controls. Binding isotherms were calculated the steady state response differentials for a series of protein concentrations. The equilibrium dissociation constant (Kd) was determined by fitting the resulting curves (KaleidaGraph, Synergy Software) to the following equation: Ra=[…](Rmax−Rmin)/((1+C/Kd)ⁿ) Where “Ra” is the measured response differential, “Rmax” is the maximal response differential, “Rmin” the minimal response differential and “C” is the ligand concentration. Analysis of NNS Library
B1 gave a Kd of 1600 nM.
B2 gave a Kd of 1800 nM.
For B3, the Kd was 900 nM.
B4 showed a Kd of 3300 nM.
For B5, the Kd was 800 nM.

What follows are binders tested against T1, Protein A (assay: Biacore).
B6: no binding.

What follows are binders tested against T1, Protein A (assay: BiaCore, Protein A on CM5 chip).
With B5 the Kd was 800 nM.
B7 gave a Kd of 800 nM.
In the case of B8, the Kd is reported as 600 nM.
